Data on one molecule can be found in patent publication US20210147570A1.

In experiment [1] the target is human CD73 (cell-surface) (human) (UniProt P21589). The experiment can be described thus: CD73 binding in cell lines (human), median EC50; method not stated.
The target is the same in experiment [2]. Briefly: CD73 binding in cell lines (human), EC50 range; method not stated.
For experiment [3] the target is unchanged. Briefly: cell-based or functional assay.

Chain of human CD73 (cell-surface) (human) (P21589 27-549): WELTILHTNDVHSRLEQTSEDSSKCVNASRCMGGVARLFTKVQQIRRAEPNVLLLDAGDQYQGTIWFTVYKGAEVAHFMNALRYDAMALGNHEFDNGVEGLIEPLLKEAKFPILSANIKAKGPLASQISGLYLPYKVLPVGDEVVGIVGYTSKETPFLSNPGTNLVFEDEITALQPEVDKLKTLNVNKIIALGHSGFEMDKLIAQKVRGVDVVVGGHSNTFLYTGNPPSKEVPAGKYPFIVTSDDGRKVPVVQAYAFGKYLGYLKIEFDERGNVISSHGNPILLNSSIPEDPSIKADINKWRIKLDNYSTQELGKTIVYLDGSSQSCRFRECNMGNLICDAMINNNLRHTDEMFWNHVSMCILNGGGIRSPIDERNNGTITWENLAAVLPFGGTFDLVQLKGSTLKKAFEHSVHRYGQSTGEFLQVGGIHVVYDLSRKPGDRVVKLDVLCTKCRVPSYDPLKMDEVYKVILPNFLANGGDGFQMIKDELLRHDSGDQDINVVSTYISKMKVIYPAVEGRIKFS

B1: CD73.4-IgG2C219S.IgG1.1f (antibody, V domains shown)
VH: QVQLVESGGGVVQPGRSLRLSCAASGFTFSNYGMHWVRQAPGKGLEWVAVILYDGSNKYYPDSVKGRFTISRDNSKNTLYLQMNSLRAEDTAVYYCARGGSSWYPDSFDIWGQGTMVTVSS
VL: DIQMTQSPSSLSASVGDRVTITCRASQGISSWLAWYQQKPEKAPKSLIYAASSLQSGVPSRFSGSGSGTDFTLTISSLQPEDFATYYCQQYNSYPLTFGGGTKVEIKR
The molecule B1 had a 50% effective concentration (EC50) in experiment [1] of 0.5 nM. Besides, the half-maximal effective concentration (EC50) in experiment [2] fell in the range of 0.3 to 0.67 nM. Also, in experiment [3], the Cellular Enzyme Inhibition (blockade of AMP processing), median EC50 worked out at 0.39 nM; the Internalization, max level worked out at 97.5%; the Internalization, median EC50 was determined as 1.2 nM.
